Data reported in paper PMC2885933 (The EMBO Journal, 2010).

Biological target: T1, ORF57-6xHis (Kaposi's sarcoma-associated herpesvirus …, UniProt Q2HR75 1-455)
T1 sequence: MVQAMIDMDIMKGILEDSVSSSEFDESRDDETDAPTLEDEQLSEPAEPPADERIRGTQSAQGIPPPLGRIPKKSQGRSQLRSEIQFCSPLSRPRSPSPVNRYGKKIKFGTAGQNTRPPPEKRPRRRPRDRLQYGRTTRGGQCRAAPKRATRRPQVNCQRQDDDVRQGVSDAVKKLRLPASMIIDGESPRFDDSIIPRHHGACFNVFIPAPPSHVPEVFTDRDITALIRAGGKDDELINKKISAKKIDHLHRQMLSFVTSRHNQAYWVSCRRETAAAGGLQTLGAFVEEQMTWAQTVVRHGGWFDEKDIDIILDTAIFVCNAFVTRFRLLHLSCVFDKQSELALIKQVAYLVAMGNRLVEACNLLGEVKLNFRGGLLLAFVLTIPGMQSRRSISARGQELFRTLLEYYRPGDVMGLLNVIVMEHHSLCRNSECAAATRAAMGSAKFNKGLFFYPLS
Test: pull-down

B1: GST-PYM (natural protein)
chain: not shown
binding result: binds
